Results published in the supplement of paper PMC10567573.

B1: NR2F2 (parent)
chain: NIPFFPDLQITDQVALLRLTWSEL
B2: MYL5 (parent)
chain: DVAGNLDYKALSYVITHGEEKEE

Variants of: B1
Assay: protein stability index of a GFP-peptide fusion (GPS, HEK-293T) (PSI 1-6); higher = more stable
Conditions: c terminus: a fixed tail appended
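Note: lentivirally expressed fusions sorted by FACS into six bins by GFP to DsRed ratio, PSI derived from sequencing read proportions per bin multiplied by bin number.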

Protein stability index: each site, then its substitutions
L24: M 2.87; E 2.02; T 1.98; F 1.99; Q 1.9; S 1.9; K 2.25; H 2.68; P 1.88; W 2.55; Y 1.65; V 2.22; G 1.65; N 1.97; R 1.96

Variants of: B2
Assay: as above
Conditions: c terminus: native

Protein stability index: each site, then its substitutions
E22: M 4.25; C 4.34; K 5.21; P 4.22; D 4.71; H 4.65; F 4.43; A 4.23; G 4.27; N 4.88; L 4.25; I 4.14
V2: I 2.61; P 1.67; G 2.06; F 1.19; T 2; E 1.35; N 1.75; C 2.31; M 1.87; H 1.92; K 1.82; S 1.82; A 1.64; W 4.54; L 1.78; R 2.3; Y 4.5; D 2.19
L6: P 2.01; D 2.06; C 1.74; S 1.7; T 2.82; V 1.36; K 2.06; Y 1.93; F 2.82; A 2.55; G 1.93; Q 1.93; E 2.52; H 2.28; N 3.84; M 1.76; W 1.72
E20: P 1.3; N 2.19; S 1.26; C 1.47; K 2.05; D 1.91; Y 2.61; M 1.77; Q 2.59; H 2.53; F 2.78; V 1.27; R 2.46; I 1.81; A 3.08; T 2.31
V14: I 3.02; N 3.53; E 2.51; F 2.25; S 2.31; P 2.48; D 2.97; T 2.14; C 2.07; R 1.31; K 2.5; M 1.24; G 2.28
D1: C 2.21; Q 2.1; M 1.65; I 1.97; K 2.34; A 2.07; V 1.66; R 2.74; H 3.37; S 2.46; F 2.11; P 1.66; T 2.13; N 2.24
K21: P 1.72; H 1.6; C 2.53; A 2.46; M 1.98; F 1.37; D 4.35; S 1.52; Y 1.79; Q 4.06; W 1.95; V 1.54; E 3.8; G 3.52; T 2.05
G18: S 1.49; R 2.43; E 2.1; C 1.68; A 1.45; P 1.12; I 2.42; N 2.11; F 1.88; Q 1.94; T 1.78; L 1.69; H 1.7; M 2.07; D 2.61
G4: Y 1.57; V 1.92; F 1.77; P 1.61; E 2.63; H 2.09; N 1.51; R 2.5; A 2.02; C 2.45; Q 1.8; S 2.09; L 2.03; I 1.46; D 1.82; M 1.59; T 2.42
L11: N 2.23; M 1.15; P 2.45; Y 2.08; T 2.81; A 2.56; E 2.64; I 1.93; K 2.08; H 2.75; S 1.36; V 1.88; G 2.48; C 2.64
I15: V 2.59; Y 3.01; M 1.82; L 1.89; G 2.31; E 3.02; R 2.73; K 2.19; D 2.31; F 2.49; N 2.63; P 2.16; C 2.95; T 2.81; Q 2.17; H 3.3; A 2.1
Y13: K 2.46; M 2.08; E 2.9; V 1.75; H 2.12; F 1.8; L 2.01; C 2.63; Q 2.33; I 2.14; P 3.39; S 2.97; A 2.7
D7: N 1.91; I 1.44; K 3.18; Y 2.1; H 2.83; V 1.96; A 1.89; S 2.5; T 1.57; F 1.04; P 1.83; M 2.11; G 2.02; E 2.29; Q 1.64; R 1.69
E19: N 3.3; F 3.04; T 3.2; M 1.08; K 3.27; D 2.23; I 2.19; L 2.9
S12: Q 1.7; E 2.13; R 1.99; G 2.54; P 2.46; V 1.73; T 3.01; L 1.77; N 2.77; A 1.72; K 2.3; I 2.45
A10: I 2.24; G 2.1; L 1.97; M 2.23; D 2.09; T 1.9; P 2.28; K 3.21; N 2.48; Q 2; E 2.35; Y 1.22; W 4.9; S 2.08; H 2; R 1.74
Y8: N 1.56; Q 1.98; K 1.39; A 2.1; R 1.75; E 2.01; D 1.81; C 2.32; H 1.48; P 2.05; V 2.62; I 2.11; T 1.42
T16: W 2.48; I 2.33; Q 2.56; H 2.48; G 3.04; V 2.35; K 2.65; F 3.87; N 3.03; E 1.99; C 1.53; S 1.89; D 2.01; L 1.27; M 1.18
K9: C 3.09; H 1.53; F 2.23; Y 2.3; A 2.29; T 2.18; N 2.01; R 1.35; P 1.95; V 2.67; L 2.75; G 1.98; M 1.6; D 2.57; S 1.56
H17: Q 1.96; D 2.89; A 1.39; G 2.4; L 2.23; S 3.05; C 1.67; N 3.23; T 2.12; K 1.79; W 1.79; E 2.25; M 1.64; P 1.83; R 2.25
A3: N 1.54; L 2.31; Y 2.15; K 2.15; D 1.87; C 1.29; T 2.21; E 2.1; I 1.71; Q 1.75; H 1.8; P 1.83; V 1.97; W 3.06
N5: T 2.29; L 3.25; H 1.92; E 2.43; D 2.69; W 1.83; V 2.05; R 1.67; F 1.87; M 1.3; K 1.97; G 2.88; Q 2.61; I 2.54
